Laboratory results as given in publication PMC4637192.

Molecular target: HLA-DRB5*01:01 molecule (recombinant HLA-DRA1 and DRB5*01:01 chains) (human)
Assay: AlphaScreen or HTRF

Substance: IE1 211-225 variant P3 K→Y (…) (peptide)
- IC50: 8 nM
